The target in assay [1] is T1, recombinant human IP-10 (human, UniProt P02778 22-98).
T1 construct: mature; also called hIP-10; rhIP-10
T1 sequence (looked up): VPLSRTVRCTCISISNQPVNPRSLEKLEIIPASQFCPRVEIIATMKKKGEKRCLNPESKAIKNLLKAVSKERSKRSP
Nature of the assay: cell-based or functional assay.

Assay [2] concerns the target T1, recombinant human IP-10. In words: SPR (Biacore 2000); the text's value differs from Table 8 (9.2 × 10^-9 M). How it is done:
200RU (response unit) of a goat anti-human polyclonal IgG (ahIgG; Biacore AB, Uppsala, Sweden) were immobilized by EDC/NHS chemistry on a C1 Biacore chip. […] The surface was regenerated after each cycle by injection of 10 mM glycine pH=1.5 at 30 μL/min, for 30 s followed by 1 min. of stabilization time in HBS-EP buffer.
Binding was measured by passing either hIP-10 (Peprotech, Rocky Hill N.J.) or a NusA-hIP-10 fusion protein at the following concentrations: 34.7 nM, 11.6 nM, 3.85 nM, 1.28 nM, 0.428 nM, 0.142 nM and OnM. All solutions were diluted in HBS-EP buffer (Biacore AB, Uppsala, Sweden). Injection was performed at 50 μl/min for 3 min. followed by 12 min. of dissociation time and the temperature was set at 25° C. […] Very similar values were obtained using rhIP-10 or the NusA-hIP-10 fusion, but better response signals were obtained with the fusion protein due to its larger size that induces a better response on the Biacore.
On the technique in general: SPR reads the build-up and loss of mass on a sensor chip optically.

A word on the Kd: it is the constant that tells how readily two partners part at equilibrium.

B1: CC21R3P1_F1 (scFv format) (scFv, part only; not given: linker, domain order, vector tags, V domains shown, not shown: another chain or arm of the molecule; small tags and cut ends)
VH: QVQLVESGGGVVQPGRSHTLSCAASGFAFKNSGIHWVRQAPGKGLEWVAVISYDGSNKFYADSVKGRFTISRDNSQNTVYLQMTDLRPDDTAVYYCARDGSESEYLDYWGKGTLVTVSS
VL: NFMLTQPHSVSESPGKTVTISCTGSGGSIDRNYVQWYQQRPGSAPITVIYEDNQRPSGVPDRFSGSIDSSSNSASLTISGLRTDDEADYYCQSYDSINLWVFGGGTKVTVL
For the molecule B1, in the assay with recombinant human IP-10 [1], the Calcium flux IC50 (nM); hCXCR3-expressing L1.2 cells, 10 nM hIP-10 came to 36 nM and the Chemotaxis IC50 (nM); hCXCR3-expressing L1.2 cells, 2 nM hIP-10 worked out at 18 nM.

B2: CC21R3P1_F1 (IgG1 format) (antibody, V domains shown)
VH: QVQLVESGGGVVQPGRSHTLSCAASGFAFKNSGIHWVRQAPGKGLEWVAVISYDGSNKFYADSVKGRFTISRDNSQNTVYLQMTDLRPDDTAVYYCARDGSESEYLDYWGKGTLVTVSS
VL: NFMLTQPHSVSESPGKTVTISCTGSGGSIDRNYVQWYQQRPGSAPITVIYEDNQRPSGVPDRFSGSIDSSSNSASLTISGLRTDDEADYYCQSYDSINLWVFGGGTKVTVL
For B2, the Kd with recombinant human IP-10 [2] is 90.2 nM.

B3: CF1A11R3P3_F3 (scFv format) (scFv, part only; not given: linker, domain order, vector tags, V domains shown, not shown: another chain or arm of the molecule; small tags and cut ends)
VH: QVQLVESGGGVVQPGRSLRLSCAASGFTFSNSGIHWVRQAPGKGLEWVAVISYDGSNKFYADSVKGRFTISRDNSKNTLYLQMNSLRAEDTAVYYCAKLRDNGEYLDYWGQGTLVTVSS
VL: NFMLTQPHSVSESPGKTVTISCTGSGGSIDRNYVQWYQQRPGSAPITVIYEDNQRPSGVPDRFSGSIDSSSNSASLTISGLRTDDEADYYCQSYDSINLWVFGGGTKVTVL
In the case of B3, in the assay with recombinant human IP-10 [1], the Calcium flux IC50 (nM); hCXCR3-expressing L1.2 cells, 10 nM hIP-10 came to 14 nM and the Chemotaxis IC50 (nM); hCXCR3-expressing L1.2 cells, 1 nM hIP-10 came out at 1.8 nM.

B4: CC21R3P5_C5 (scFv format) (scFv, part only; not given: linker and tags, part only)
scFv, part: QVQLVQSGGGVVQPGRSLRLSCAASGFTFSTYGMHWVRQAPGKGLEWVAVISYDGGTKYYADSVKGRFTISRDNSMKTLYLQMNSLRTEDTAVYYCAKDLGDLPPGLDYWGRGTMVTVSSCHEMICALLYSYNTHESIZEDSYELTQPPSVSVALGQTATITCGGSSIESKSVHWYQEKPGQAPVLVIYKDSNRPSVIPERFSGSNSGNTATLTIGRAQAGDEADYYCQVWDSSTGVVFGGGTKLTVL
On to B4, for which, in the assay with recombinant human IP-10 [1], the Calcium flux IC50 (nM); hCXCR3-expressing L1.2 cells, 10 nM hIP-10 was found to be 89 nM and the Chemotaxis IC50 (nM); hCXCR3-expressing L1.2 cells, 1 nM hIP-10 is 90 nM.

These data come from patent publication US20100322941A1 (published 2010).
